Measured values reported in the DeepSol protein solubility set.

Assay: soluble on expression in E. coli; label from the status in PepcDB or PDB records

Sequence | soluble on expression in E. coli
MRKIRLVYRRFPNRVIMREDEVIEDFGDVIVAKSEFTGMLAPLRVNGVEVINNGYKMVYFAFIGRDFDVLKIYDPSGNFKGLYVDVLDYTRREGNTVEILDLFLDIFIFPEGEYYLLDEDELEMAFNYGIISREKLLKAYDTAERIIGQIKRGKFPPKIVWEYSL | not soluble
MRKLTLPKDFLWGGAVAAHQVEGGWNKDGKGPSICDVLTGGAHGVPREITQNVVAGKYYPNHEAVDFYGHYKEDIRLFAEMGFKCFRTSIAWTRIFPNGDESQPNEAGLKFYDDMFDELLKYNIEPVITLSHFEMPLHLVQHYGGWTNRKVVDFFVRFAEVVFERYKHKVKYWMTFNEINNQRNWRAPLFGYCCSGVVYTEHENPEETMYQVLHHQFVASALAVKAARRINPQMKVGCMLAMVALYPFSCKPEDVMFAQESMRERYVFTDVQLRGYYPSYVLNEWERRGFNIKMEDGDLEVLREGTCDYLGFSYYMTNAVKAEGGSGDAISGFEGSVPNPYVKASDWGWQIDPVGLRYSLCELYERYQKPLFIVENGFGAYDKVEEDGSINDDYRIDYLRAHIEEMKKAVTYDGVDLMGYTPWGCIDCVSFTTGQYSKRYGFIYVNKHDDGTGDMSRSRKKSFNWYKEVIASNGEKL | not soluble
MRKNKLSFKEKAGAEQEECLCFCEGEASREAMFQAPIELPEGFVVDPAEAVANVTWNADSLSCVSDRCLIQTGPEPDEVGVQFAVRLQGTVTLLVSVSPVRNQYGQGDGAVSVIHNAEIDQVVYYSDESDDCPDISDITIENLVVVPPFYGSPLSVTGTIVLVPEPEPVYAFTANPNDQSVSVIDTNTDTVVTTIALPYNPAGIEITPDKSAVFVLHPNNNVISVIDYDTLTVTATILLDQPPRLIRFIPNHEFAYVFTGTAVYVIGIDTLTVDRSIPVEGYDVAIDPNGLFAYVLNFGIVQKVDLTTGEVTGTIERELIVSTIETNWPERYAYVLEQEFFFNYLTVIDLNTFTISSTQELEYEGEYRMFTSGAEVYLYDGFTGNLYSVSPNGAGVIGNVPQSATDYAFTPNGDFLYATRFIEQSIIVYNTDDYSEETVISLGVSPGAITILEHHHHHH | soluble
MRKQLPVICVAAGIVLLAACTNDGGQQQTTVAPQPAVCNGPTVEISGAEPRYEPLNPTANQDYQRDGKSYKIVQDPSRFSQAGLAAIYDAEPGSNLTASGEMFDPMQLTAAHPTLPIPSYARITNLANGRMIVVRINDRGPYGTDRVISLSRAAADRLNTSNNTKVRIDPIIVAPDGSLSGPGMACTTVAKQTYALPPRPDLSGGMGSASSAPAQPQGDVLPVSNSTLKSDDTTGAPVSSSGFLGAPTTLAPGVLESNEPTPAPQPAPVSAPVAAPATAPATATPVSAPAAAAPVSAPVSAPAAAASGRFVVQVGAVSDQTRAQQYQQRLSQQFSVPGRVIQNGAVWRIQLGPFASKAEASALQQRLQTEAQLQSFIASAQ | not soluble
MRKRARIIYNPTSGKELFKRVLPDALIKLEKAGYETSAYATEKIGDATFEAERALESEYDLLIAAGGDGTLNEVVNGIAEQPNRPKLGVIPMGTVNDFGRALHLPSDIMGAIDVIIDGHTTKVDIGKMNNRYFINLAAGGKLTQVSYETPSKLKSIVGPFAYYIKGFEMLPQMKAVDVRIEYDDNIFQGEALLFLLGLTNSMAGFEKLVPDAKLDDGYFTLIIVEKANLAELGHIMTLASRGEHTKHPKVIYAKAKSINISSFTDMQLNVDGEYGGKLPANFLNLEQHIEIFTPKDVFNEELLENDTITDITPDKQ | not soluble
MRKRKPLDYYLSLKYPVLLVAEPEGGYTALHPDLEGCVSVGETPEEALANLEEARRLWLEAAYEHGDEIPLPSTEREYSGRVLVRMPKSLHRRLDEEAKAEGVSLNQYIVSLPAERSSLRALKRELTRTGRAAEAPDSWEWGTSSGGGIWTGVLA | soluble
MRKTKTEALKTKEHLMLAALETFYRKGIARTSLNEIAQAAGVTRGALYWHFKNKEDLFDALFQRICDDIENCIAQDAEDAEGGSWAVFRHTLLHFFERLQSNDIYYKFHNILFLKCEHTEQNAAVIAIARKHQAIWREKITAVLTEAVENQDLADDLDKETAVIFIKSTLDGLIWRWFSSCERFDLGKTAPRIIGIMMDNLENHPDLRRK | soluble
MRKTLNVVVNGERTEIVTYKGTVQGALHDNGITLAPKDKVTPSLESKISKNETITINKAVNVKVKTEDGEKEIVSAEDNVEDMLKSEGISFDDDDKILPDKKESLKDGMNVEVVKVDVKKVTEVHPIEFTTEVKKDESKPQTYTEVLNDGQDGEKKVTRELVYENGKEVSNNVIQELVVKEPVNKEVVKGTKETQTLSRGGESINFKKKLSVKSTAYNHPLGSAEAYTASGMHVLRDPNGYSTIAVDPSVIPLGTKLYVEGYGYAIAADTGGAIKGNRVDLFFNTEAEASNWGVRNLDVYILNLEHHHHHH | soluble
MRKYSQRHIPVMVREVIEFLKPEDEKIILDCTVGEGGHSRAILEHCPGCRIIGIDVDSEVLRIAEEKLKEFSDRVSLFKVSYREADFLLKTLGIEKVDGILMDLGVSTYQLKGENRGFTFEREEPLDMRMDLESEVTAQKVLNELPEEELARIIFEYGEEKRFARRIARKIVENRPLNTTLDLVKAVREALPSYEIRRRKRHFATKTFQAIRIYVNRELENLKEFLKKAEDLLNPGGRIVVISFHSLEDRIVKETFRNSKKLRILTEKPVRPSEEEIRENPRARSGRLRAAERIEEGGD | soluble
MRLCSVALLLFTVAYVKSAIDINVPSTLYIKEGDTGTIGLPVSANYRREVHNPKGTMDEQLYRVCNGKNKTTCGFWEDVKTKKKVKSGVTTYNKNKKALVIKKMLVSDFGNYMTGNKKKSRYVQQLVSLGK | not soluble
MRLEECNILFELLTEIQDEAGSMEKIVHKTLQRLSQLLAADRCSMFICRSRNGIPEVATRLLNVTPTSKFEDNLVNPDKETVFPLDIGIAGWVAHTKKFFNIPDVKKNNHFSDYLDKKTGYTTVNMMAIPITQGKEVLAVVMALNKLNASEFSKEDEEVFKKYLNFISLVLRLEHHHHHH | soluble
MRLFLLLLSLLLISITTAFALDKPDGSNSIEDQTALFFGKDDRTAVTNSRQWPWEAIGQVETASGNPCTATLISPRLVLTAGHCVLTPPGNIDQAVALRFISDKGHWKYQITDLKTRVDAKLGQKLKADGDGWIVPPAAAAYDFALIQLTNAAPIPIKPLPLWEGTANELTKALKLVNRKVTQAGYPLDNLNTLYKHEDCLVTGWAQQGVLAHQCDTLPGDSGSPLLLKNGNSWSLIAIQSSAPAAKERYLADNRALSVTAINNRLKKLVNKIADTTQ | not soluble
MRLYLLAFLALFGMNAMAADNWKAFPYDQSAYDYPGDKLKEAWPRLTRGFGDYPYPDADWVVNMATAHPDALEKTVKAGTGFTGKPEEAAQYAARLQDVWRLLFRGDYAKAKEQGLALGVGGQVPAMFAQVLYAMFLAPGQAEKQRLLEEVIDYTEQAGPLVKADIVAQFGSVYAKARLAEELSVPVVLKRGYTSEIPKELDALLARQPNQPFALALYGGYEAGVIRKVGKLVGKMTYGVSADKMEQYFARSFRQANDLPIGHYEYANALTYVYGDDEREKAIAQLKQAVAIKPINAMEALEVAHAKKLLAGFEQNTAQR | not soluble
MRPGWIAADWGTSRLRVWAMGAEGVLAEARSDEGMGQIAVGGFEAALLRLIGLWLSDGPAVQVVICGMAGARQGWQEVPYRRLPCAPVDPQALVPVPSEDPRIAVRIVPGLAQAKPADVMRGEETQIAGALALLGSFDGVICLPGTHSKWAQVSAGEVVSFRSFLTGELFALLSERSVLRHGLAAEGWDDEAFLAAVSDGMSHPQKLGAKLFGLRAEALLQDLPPATARARLSGLLIGLELVGARSYWLGQPVVLVGEEALAARYGAALAAQGVQARLLPAAACTLGGLAAAVGQLTLASSGAGRKA | not soluble
MRPPRPPRPPSPQRSAELRRRFAQEARSERPDLATLCLLVGAEADGTLDEAGLDAAQVELDRLAGELPFRPGTPRAWAVALRDLLGERYGFHGVAADYQRLESSLLHEVVRRRRGLPILLSVVWLEVARRAGAPVYGVALPGHFVVGFGGESAAASGPGSAPLGERVLVDPYDGGRLLSGTDAEALVAGATGAELRASMLEPAAPLDVVARVLNNIRAWAAARPEQSAVGLWAVELALLLPAHAARLRYERAVLLVQRGEFAAGAGELEAYAEVVEAVDEAVAEEVRGEARTARAMLN | not soluble
MRQCTPFDTLLVFYSTWPVLKNILTNKIMPAELESVRTRQIVALRTMINLNEPVVNSGVREPVWKVLVLDRTGQDIISPLLPVKQLRELGVTLHLLIGARREPLTDVPAVYFVSPNDENIDLMSEDLKKAMYDSFYCNFISPLARPRLESLASAAVHGGAVSQVQKVVDQYLNFISLEDDLFVLRRYSENSTFSYHAMNSPGTSDVAVNAMLDSIADGLFAVCATMGIVPIIRCPKGNAAEMVAKKLDQKLRDNLRDSRNNLFTMDGVRMGLLQTSRPLLVIGDRSADLATMLHHTWTYQALMHDVLELDQNRVTISTSSTGKKKDYDMATGGSDKLWNNHKGSAFPTVAEAVQENLDDYRSKEDDIKKIKQALGLSGESEAADEALTNVLADTTAKLGSTVMSLPDLLESKRLIDLHTNIATTLLDVIKERKLDVSLSSSKSCCNTHRLVDLFYQPVTQFLSNINHQEDVLRVLIIAFLCQETVNQNGYDQMMNLLRERGIEESALKHVQKLKSISQLGSRAANSAHTEEHQGAGTKTISMFGKLLSHSSKFVMEGVKNLVPKEHNLPLTKMIDSLNTPPSSTGISSAVGINQMIGGSSQGPDIDDIYCFFDPKLMHQPTKETILLARQQSAQDVILFVVGGGNYVEYQNLVDYGKRKNLMRVTYGCTELVNPAQFCDQVSCCSLSLPLTDLSGDSPYFFCSPLEF | not soluble
MRQGGIYQTKDANKGPVTVPPLRTKTPPPPPPPVRRHEIYEQHKRYTSAPNLQSAVIRIQDDKPRSIMKRNDLVRREQMLYPTVDTQVVKSVVKKPTVTETVQRFEETRRTEEVERRVQRREKKERRSRHHSSSRHHSGWEGHTGGYQEYRQGAITSSLPRRQIIREADRAMTEEEMNKVVREAYAAADEARKDSRHRSSSLSRGGHGGGGQETYYRQETTRRQQHNNYDDNFNRGIAHARYGSLSDSLRRGELQYVPNGEVRQSFYRDGSNGGQRMHKSYSTRDVFTGDGYDDRRSVSSFRRGSQQQVSPFVEFPPTLPRRGGGGDYRREEDAYFRPVSKSRSYADWDDAGRAGMGREVRRYDDDMSRLEAEFRDSLLMPMPAGNMNERDHRTEQLPGGYETFNKERHANSGRRSGRDGKPVDFNEATQEYNYKREQTLNDDRRRR | not soluble
MRRESYRERALVVRSYDFGEADRIIVLFTRGRGIVRGVAKGVRRAKSRFGSRLQPFVELDVQLYRGRNLESITAADTVAYFGAKIIDDVTRFSAASSILEGVEKLAVGDEPRLFDLTVTALKNMQSCAHPVAEVDTFLLQGMNIAGWAPSLFDCAQCGASGPHHAFHPSPGGAVCVHCRPLGAQEVDPETLHMMWLMAQGHRDAVAEIGTPERYQQAHALIRSHLSWHVERGLASLNVLDQV | not soluble
MRRGRGKGKKQNASAREDRGSGDEEKIPAYRRRGRPQKPMKDDFEEEEEEDDEEMVEKMEVEDEDEEIDDGSVTSKDLKERKRKMSNGSNTDLTEEENGLGSKPNTDDSTRSTSIGFRQNGSRRKSKPRRAAEAVVECNGV | soluble
